# According to the DeepSol protein solubility set:
# Experiment: soluble on expression in E. coli; label from the status in PepcDB or PDB records
row,Sequence,soluble on expression in E. coli
1,MAEQRSNIMRLPPSGYRLHRFPPLAQPVAVDEEFGLDNQGWQESQVDIQQQLEAGFQQGLQQGHEEGLRQGIEQGKQQGLLDGQKEGFQKGFVSGEQAGKQGFLEAAKPVNDLFQALSRWQSEKEQQQRHMICELVQKVAQQVIRAELTLMPQQILALVDETLSAMPGKAETVTVHLNPQDLERITHINADLPKSWKLVANNELPIGGCQLVTDDAEADASCDSRLEACMDNVKQHLLDEVSIPQVESENE,not soluble
2,MAETSNASAEPELIYFEVTSNEERFVHMVFQMASNTTNQFLIFVKDDETCFRAQRALYSSGEMTQCFLKNMNKDAFKKRKQELKNGTAKVWIADRSVIGKLVDCFSKELTVFLYDGISNDFPKQAVGKCHSVISLKQSRHTAVNTSDGLFEQVFHICQLYNATFTSPIKDWMASSKNGDLPENADTMKLVIARPSELLNSASTLRSFNDIVAKDPRILNLMEAFKVIENKARIDKDDNSRGMLYLCVKMRSELDGQYVTKNKADQFYRVEFNTLKNMKNKSEFLRKMCPS,not soluble
3,MAEVKEKRHEELGLSDEQVLEMFRTMLLARKIDERMWLLNRAGKIPFVISCQGQEAAQVGAAFALDREKDYALPYYRDMGVVLAFGMTAKELMLSGFAKAGDPNSGGRQMPGHFGQKKNRIVTGSSPVTTQVPHAVGIALAGKMEKKDLVTFVTFGEGSSNQGDFHEGANFAGVHKLPVIFMCENNKYAISIPVEKQLACKNVSDRAIGYGMPGYTVDGNDPLAVYKAVKEAADRGRRGEGPTLIETVSYRLTAHSSDDDDRVYRDKEEVEEAKKNDSIVTFAAYLKEVGVLTEESEKQMLDEIMHIVNEATEYAENAPYAAPEDALKHVYAE,not soluble
4,MAEVTGVRALTGAALDAALEDVARLRIAVFRAWPYLYDGDLDYERDYLQAYRNSDRAIVVGAFDGDRLIGASTGMPLADHADDFAAAFADSGLALDQVFYCAESVLLPDYRGHGVGHRFFDLREGHARALGFAKC,not soluble
5,MAFDGLFTRAITHEIANSLYTGRISKIYQPSKYEILLHIRANGKNQKLILSAHPTYARLHLTNQNYDSPALPPMFCMLLRKHLEGGFIEKIEQIDLERIIQITVRSRNEIGDESLKTLVIEIMGRHSNIILVDTKTNNILDSLKHVSLAVNRHRTVYAGAEYIAPPVQHKINPLQIETNDEFIRPLDFLSGNMDKQLVGTFTGISPLFAKEVVKKAGMVNEKALADAFFSIQKPLLTHTYSPTMTTSNGKEFFYLFPLAHLAGENKTFSSVSELLDRFFFGKAERDRVKQQAHDLERFMQNEKNKNEKKLIKLEKTLQDAGKADKYQLFGELLTANMYALKKGDKDIEVVNYYDENGGTVKIALDPLKTPSENAQRYFQKYQKAKNSIVVVEEQIEKTKEEILYFDSLLQQMEAASSKDIEEIREELAEEGYMRNRKTKNAKKKPTKPVLDKYVASDGTEIFVGKNNKQNDYLTTKFARRDEIWLHTKDIPGSHVVIRSLEPAEETLLEAAKIAAYYSKAKESSSVPVDFTKIRHVKKPSGAKLGFVTYDNQQTVYVTPDADTVMKLKA,not soluble
6,MAFELPALPYAKDALEPHISAETLDFHHGKHHNTYVVKLNGLIPGTEFENKSLEEIIKTSTGGIFNNAAQVWNHTFYWHCLSPNGGGEPTGAVAEAINAAFGSFADFKAKFTDSAINNFGSSWTWLVKKADGTLAITNTSNAATPLTEEGVTPLLTVDLWEHAYYIDYRNVRPDYMNGFWALVNWDFVAQNLAK,not soluble
7,MAFLARKTSSLLPATTSSTVKHMIYDEPHFAMQNSLAKLIKEKINPNVAQWEKSGRYPAHFVFKMLGQLGVFAVNKPVDYGGTGRDFAMSIAIAEQIGAVDCGSIPMSVMVQSDMSTPALAQFGSDSLRNRFLRPSINGDLVSSIAVSEPHAGSDVSAIRTHARRYGSDLIINGSKMWITNGDQADWACVLVNTSNAKNLHKNKSLVCIPLDSIGVHRSTPLDKLGMRSSDTVQLFFEDVRVPSSYIIGEEGRGFAYQMNQFNDERLVTVAVGLLPLQKCINETIEYARERLIFGKTLLDQQYVQFRLAELEAELEATRSLLYRTVLARCQGEDVSMLTAMAKLKIGRLARKVTDQCLQIWGGAGYLNDNGISRAFRDFRIFSIGAGCDEVMMQIIHKTQSKRQQKRI,not soluble
8,MAFRLAVDCLGFENHPREAIDAVLEYWSYHQELEFILVGDEKTFDGLDYLPKNITKQLASSCIDMTDTPLTARRKVNNSMQKAINLVRDGAADVVISAGSSAVYASLTYDGFGKIHKDVKSAFMSYVPTANNDWFYFLDVGANKNFTGKELYFLGLMADIFVKKTTNKISPRIALLNIGTEIHKGFDYHQEGYQLLNEDKHLNFTGFIEPRFLLDGVCDILVADGYSGNLVLKSMEGTFKTIARLLKQGYKRNPLAGLFSLGILKRIAKRFDYKNNAGAVVIGLNKLALKTHGSADKQQFLSTIRLAHTSLKSDLINAIKSSLDNYEK,soluble
9,MAGAITLACTIRFEANAEHVYLSSGTKQTVYHYPFPMSTIHITLNGERKEVPAGSTVSELLVIADADRQPVAVVVNEHIVRPDQRDSYILQERDQVEILVFAGGGLEHHHHHH,soluble
10,MAGDPMANITLSTQHYRIHRSDVEPVKEKTTDKDVFAKSITAVRNSFISLSTSLSDRFSLHLQTDIPTTHFHRGSASEGRAVLTSKTVKDFMLQKLNSLDIKGNASKDPAYARQTCEAMLSAVYSNNKDHCCKLLISKGVSITPFLKEIGEAAQNAGLPGEIKNGVFTPGGAGANPFVVPLIAAASIKYPHMFINHNQQVSFKAYAEKIVMKEVTPLFNKGTMPTPQQFQLTIENIANKYLQNASLEHHHHHH,not soluble
11,MAGDPMERIESRRARTVRQMLNIRKITYLEKTRKGIEMNSKTIGIDIGGANTKLASSDGTIVELHYLPLWKNTMLPEVLKEISQRLKPENVAVVMTGELADCFEDKEQGIRFIKENVDSAFGSGKVSYINSQGRFRKENDPLRDLAAANWAASARLIGEEIGDCIFVDVGSTTSDIIPVISGEHRAGHTDFERLLRSELVYAGTLRTNLAALLEKVKLEKGICRTSSELFATTADAYLILGEINEDKYTCETADGVGRSKIEAMRRIARLVCADLSEVGETEVYEIAEQVKEKQVSALTEAISEVAERNRLEKIAAAGLGEFLISEAAERLGFECISVAGRWGEEISKVFPAYAAARLLDKYSELEHHHHHH,not soluble
12,MAGDPMKKRFSNKVLIIGYGSVSQCTLPLLLDKLDIPLENITLIDFEDKSKALKKYTNQGLTFVREKITPENLDQVLSQNMENEGMIIDLSWNIDANEIVKWCHDHDVLYVNTSVEVWDPAEKFLTQSLLEKSLYLRQMRLQELSRDWKDAPTAVVDHGANPGLITHFVKQGLLDIAARTCEDKKVSPEDEQEIALLAKNRDFARLARKLGIRVIHCSERDTQIASRPKEVNEFVGTWSIEGLREEGTAPVEIAWGTHESKLPPLAHIPPYGPKNVILLPQMGVNAWVRSWIPDEEIVGMAIRHGESYGLSKLLTVWEGEKAVYRPTVHYAYMPSHDTLSSLCELRGRNYELQPRLRIMTNEIVSGEDIMGALLMGHSYNSWWTGSALSIEEARSLAPGQNATTLQVAAGIVAAILWMLENPREGVKTPEDLPHDFVLDIARPYLGKFISTPSDWTPLKNRKIFFKESPAVKHDPDPWQFENFIFVGLEHHHHHH,soluble
13,MAGDPMNSRMKIKKAYEYMKSFHQHDTTGHDIAHVERVYNNACYIAKRENITDTLVIELSSLLHDTVDSKLTDEILAYDQLKQFLSTLDLSSEISQQVLYIIKHMSYRAGKNNHVKLSIDGEIVRDADRLDAIGAIGIARTFQFSGHFGEPMWTETKLSNEELHTSLVEELDNSAIKHFYEKLFKLKDLMHTPTAKKLAEERHQFMIQYLKQFMSEWNFNKELEHHHHHH,soluble
14,MAGDPMSRRVIRTYKLAVPGHLSQTCEELNRTAARIYNKTMSLVRKIHQKKGFWLSWPTADKYILRWAENIKIHVHSKQAFVQLYFQALKGYFKATKKNPDAKPPHKKKRYLPFIWKESAVKLLPDGTLRLSLGKERESFVVQTPLKPPLRIKQTRLVFEDGYYLHLAIEVEIEEKNAGSGVMAVDLGVLRPITCFDGKEVISYHGGVLSSVLRYRNKRLASFQSAIAECKKGSRRYNKLVRAKKRVLRRLRNQINDIMHKITSNFIGLCLRKQIGTIVIGDVTGIRERADYSDNANQKIHQWQFRKLIEMIRYKAEQFGIEVKLISEANTSKTCPVCGAKNNPNGRRYHCKACGFEYHRDGVGAINIWKRYPGTGQVVAGLAPVRGVRFHPHLCGHGASLAPWKVALEHHHHHH,not soluble
15,MAGDPMTFLIIRQTHENVLSKETVVKKVEASYEGKVTKATQSKDKKTYDITLENPKGTYFVKADAISADILSMNRVKAVNPSAMTEKEAEHLALERVPGTVKKQTRQSQVATYTIQKEDGKTYEVKVDMQAKTVLSADQISSKDQQKTPITKKEAKTIAERKTGGTADDADLEESEGTLIFEVDVDLPDNKEATVKINAYTGKVANIVYEDLEHHHHHH,not soluble
16,MAGEKFQKKGKEKWKEKVWYTVEAPPYLGSKEVSVALGEDSNSMVNRVVEVPISELTGNFKKSNEKALFRITNCEGTKCKTIFIGHYIGDDYIRRLVRRRKERIDIIEDVKTSDNSIITVKIVVVTDGKVTNTKKFQIRKVLTDFILNKGLSLPYSEFVRYLIGDDIYNDMISATKDIYPLKKIEVRKSELVSLSGISEIHAGSQNSGEEPVVQNLEHHHHHH,not soluble
17,MAGGDDLKLLGAWPSPFVTRVKLALALKGLSYEDVEEDLYKKSELLLKSNPVHKKIPVLIHNGAPVCESMIILQYIDEVFASTGPSLLPADPYERAIARFWVAYVDDKLVAPWRQWLRGKTEEEKSEGKKQAFAAVGVLEGALRECSKGGGFFGGDGVGLVDVALGGVLSWMKVTEALSGDKIFDAAKTPLLAAWVERFIELDAAKAALPDVGRLLEFAKAREAAAAASK,soluble
18,MAGIEITVIDYYHSKINKDSKMEIKIGELPKVLNKTYLGKLNATPSMNNPVKDTQGGEKQMESMLAYIKQKGWAGESKPNFVMNRNVIGAIPSSTGVENFIVFKTNDVQVIVKTPKEKGQESEGNQMEPWKSLIYGVNFEHHCTKTANEPLPTNDAVTKAVLKAHVPRTQEGSNNSSYSILYSAQIDGIDDKRQHYEMKVLNGGLTKYHLENSSCWFYWQSVFGNCNTLIVGSRTGKQDQDPKTLTKTRERQREELDDISYVSKFVSFSFKT,soluble
